# Assay results published in patent publication US20260174875A1 (Novo Nordisk A/S, priority 2023, published 2026).
# Square brackets hold non-standard residues; d marks the D form. Chem. 28 = not defined here; Aib = CC(C)(N)C(=O)O
# T1: human GIP receptor (human, UniProt P48546 22-466)
# T1 sequence (looked up): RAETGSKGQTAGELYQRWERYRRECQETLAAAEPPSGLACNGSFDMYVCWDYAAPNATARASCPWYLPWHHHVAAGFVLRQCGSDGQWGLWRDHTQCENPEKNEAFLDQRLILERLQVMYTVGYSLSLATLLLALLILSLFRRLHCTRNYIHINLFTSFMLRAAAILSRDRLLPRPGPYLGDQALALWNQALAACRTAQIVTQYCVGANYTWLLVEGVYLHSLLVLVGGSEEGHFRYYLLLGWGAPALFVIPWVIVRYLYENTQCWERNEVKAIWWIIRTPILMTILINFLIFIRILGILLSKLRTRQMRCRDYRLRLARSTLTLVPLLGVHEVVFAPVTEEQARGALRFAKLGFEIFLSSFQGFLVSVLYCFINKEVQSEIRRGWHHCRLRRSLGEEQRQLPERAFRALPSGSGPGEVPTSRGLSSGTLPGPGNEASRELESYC
# T2: human amylin-3(a) receptor (human, UniProt P30988 25-474; O60896 24-148)
# T2 sequence (looked up) 1: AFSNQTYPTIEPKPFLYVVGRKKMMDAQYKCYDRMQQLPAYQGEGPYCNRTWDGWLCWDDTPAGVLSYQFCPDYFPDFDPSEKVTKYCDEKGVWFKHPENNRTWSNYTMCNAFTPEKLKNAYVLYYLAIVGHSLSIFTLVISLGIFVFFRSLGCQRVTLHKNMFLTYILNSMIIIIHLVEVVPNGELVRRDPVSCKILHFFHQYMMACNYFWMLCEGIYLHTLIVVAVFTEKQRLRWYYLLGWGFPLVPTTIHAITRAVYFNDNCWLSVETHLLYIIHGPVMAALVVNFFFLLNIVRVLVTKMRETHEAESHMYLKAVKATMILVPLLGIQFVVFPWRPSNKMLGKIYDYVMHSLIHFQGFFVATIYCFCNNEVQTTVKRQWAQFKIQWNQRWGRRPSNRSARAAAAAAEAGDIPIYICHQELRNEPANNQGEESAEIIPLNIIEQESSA
# T2 sequence (looked up) 2: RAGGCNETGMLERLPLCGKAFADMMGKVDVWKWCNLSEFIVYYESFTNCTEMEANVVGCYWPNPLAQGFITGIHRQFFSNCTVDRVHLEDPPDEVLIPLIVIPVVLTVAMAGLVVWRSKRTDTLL
# What was measured:
# Experiment in all cases: cell-based or functional assay
# [1] = target: T3, human GLP-1 receptor (human, UniProt P43220 24-463)
# [2] = target: T1, human GIP receptor
# [3] = target: T2, human amylin-3(a) receptor
# [4] = target: T3, human GLP-1 receptor; remark: listed apart in the source
# [5] = target: T1, human GIP receptor; remark: listed apart in the source
# [6] = target: T2, human amylin-3(a) receptor; remark: listed apart in the source
Binder,"hGLP-1R Potency, no HSA, EC50 [pM] [1]","hGIPR Potency, no HSA, EC50 [pM] [2]","hAMYR3 Potency, no HSA, EC50 [pM] [3]","hGLP-1R Potency, 1% HSA, EC50 [pM] [4]","hGIPR Potency, 1% HSA, EC50 [pM] [5]","hAMYR3 Potency, 1% HSA, EC50 [pM] [6]"
Compound 23 (reading uncertain) peptide: Y[Aib]EGTFTSDYSILLEEQAAREFIEWLLAGGPSK(Chem. 28)GALAQTLGTNEASELSTAALGRLSAELHELATLPRTETGSGSP-NH2,15.3 pM,1.2 pM,5.17 pM,–,–,–
Compound 31 (reading uncertain) peptide: Y[Aib]EGTFTSDYSILLEEQAAREFIEWLLAGGPSSK(Chem. 28)APPPSGGGEASELSTAALGRLSAELHRLATLPRTETGSGSP-NH2,47.8 pM,4.73 pM,2.69 pM,–,–,–
Compound 49 (reading uncertain) peptide: Y[Aib]EGTFTSDYSILLEEQAAREFIEWLLAGGPSSGAPPPSGGGEASHLSTAQTQRLSAELHK(Chem. 28)LATLPRTETGSGSP-NH2,33.3 pM,4.36 pM,1.85 pM,110 pM,16.7 pM,106 pM
Compound 29 (reading uncertain) peptide: Y[Aib]EGTFTSDYSILLEEQAAREFIEWLLAGGPSK(Chem. 28)GEASELSTAALGRLSAELHYLATLPRTETGSGSP-NH2,27.1 pM,2.62 pM,3.09 pM,–,–,–
Compound 25 (reading uncertain) peptide: H[Aib]HGTFTSDYSILLEEQAAREFIEWLLAGGPSK(Chem. 28)GEASELSTAALGRLSAELHRLATLPRTETGSGSP-NH2,2.87 pM,4.27 pM,3.22 pM,–,–,–
Compound 48 (reading uncertain) peptide: Y[Aib]EGTFTSDYSILLEEQAAREFIEWLLAGGPSSGALAQTLAQTLASHLSTAQTQRLSAELHK(Chem. 28)LATLPRTETGSGSP-NH2,64.8 pM,7.02 pM,3.2 pM,105 pM,54 pM,78.5 pM
Compound 50 (reading uncertain) peptide: Y[Aib]EGTFTSDYSILLEEQAAREFIEWLLAGGPSSGEASHLSTAQTQRLSAELHK(Chem. 28)LATLPRTETGSGSP-NH2,16.2 pM,2.36 pM,3.2 pM,66.3 pM,15.1 pM,185 pM
Compound 24 (reading uncertain) peptide: Y[Aib]EGTFTSDYSILLEEQAAREFIEWLLAGGPSK(Chem. 28)GALAQTLFVNQASELSTAALGRLSAELHELATLPRTETGSGSP-NH2,51.5 pM,2.34 pM,4.24 pM,–,–,–
Compound 27 (reading uncertain) peptide: Y[Aib]EGTFTSDYSILLEEQAAREFIEWLLAGGPSK(Chem. 28)GEASELSTAQLGRLSAELHRLATLPRTETGSGSP-NH2,26.2 pM,2.11 pM,3.82 pM,–,–,–
Compound 43 (reading uncertain) peptide: H[Aib]HGTFTSDYSILLEEQAAREFIEWLLAGGPSK(Chem. 28)GEASQLSTAALGRLSAELHRLADLPRTETGSGSP-NH2,4.31 pM,4.38 pM,3.13 pM,41.5 pM,186 pM,56.5 pM
Compound 37 (reading uncertain) peptide: H[Aib]HGTFTSDYSILLEEQAAREFIEWLLAGGPSK(Chem. 28)GAPPPSGGGEASHLSTAQTARLSAELHRLADLPRTETGSGSP-NH2,3.94 pM,2.34 pM,2.98 pM,188 pM,133 pM,75.7 pM
Compound 47 (reading uncertain) peptide: H[Aib]HGTFTSDYSILLEEQAAREFIEWLLAGGPSK(Chem. 28)GAGQAPGQAPGASHLSTAQTQRLSAELHELATLPRTETGSGSP-NH2,3.15 pM,2.02 pM,2.57 pM,67.5 pM,162 pM,55.8 pM
Compound 32 (reading uncertain) peptide: Y[Aib]EGTFTSDYSILLEEQAAREFIEWLLAGGPSK(Chem. 28)GAEASELSTAALGRLSAELHELATLPRTETGSGSP-NH2,27.6 pM,8.09 pM,10.1 pM,–,–,–
Compound 45 (reading uncertain) peptide: H[Aib]HGTFTSDYSILLEEQAAREFIEWLLAGGPSK(Chem. 28)GALAQTLGTNEASHLSTAQTQRLSAELHELATLPRTETGSGSP-NH2,4.78 pM,2.63 pM,4.69 pM,112 pM,132 pM,62.4 pM
Compound 28 (reading uncertain) peptide: Y[Aib]EGTFTSDYSILLEEQAAREFIEWLLAGGPSK(Chem. 28)GEASELSTAALARLSAELHRLATLPRTETGSGSP-NH2,96 pM,3.5 pM,2.28 pM,–,–,–
Compound 30 (reading uncertain) peptide: H[Aib]HGTFTSDYSILLEEQAAREFIEWLLAGGPSK(Chem. 28)GAPPPSGGGEASELSTAALGRLSAELHRLATLPRTETGSGSP-NH2,6.37 pM,6.8 pM,2.28 pM,–,–,–
Compound 39 (reading uncertain) peptide: Y[Aib]EGTFTSDYSILLEEQAAREFIEWLLAGGPSK(Chem. 28)GGQEPGQEPGEASHLSTAQTQRLSAELHELATLPRTETGSGSP-NH2,23.7 pM,1.62 pM,5.75 pM,1930 pM,352 pM,140 pM
Compound 36 (reading uncertain) peptide: H[Aib]HGTFTSDYSILLEEQAAREFIEWLLAGGPSK(Chem. 28)GEASHLSTAQTARLSAELHELATLPRTETGSGSP-NH2,3.19 pM,1.96 pM,3.84 pM,208 pM,226 pM,137 pM
Compound 38 (reading uncertain) peptide: Y[Aib]EGTFTSDYSILLEEQAAREFIEWLLAGGPSK(Chem. 28)GGQAPGQAPGEASHLSTAQTQRLSAELHELATLPRTETGSGSP-NH2,12 pM,1.37 pM,3.63 pM,2350 pM,336 pM,172 pM
